Measured values reported in patent publication US20160207996A1 (ARGEN X N V, published 2016).
Residue numbers refer to the chain shown, from its start.

What was measured:
[1] = molecular target: T1, hNav1.7-loopB1-C1-D1-llama Fc (human); assay: ELISA, coated loop-B1-C1-D1-llama Fc 20 ng/well, mAb titrated
T1 construct: whole entry: loops B1, C1, D1 joined by linkers, llama Fc; also called hNav1.7-loopB1-C1-D1-llfc
T1 chain: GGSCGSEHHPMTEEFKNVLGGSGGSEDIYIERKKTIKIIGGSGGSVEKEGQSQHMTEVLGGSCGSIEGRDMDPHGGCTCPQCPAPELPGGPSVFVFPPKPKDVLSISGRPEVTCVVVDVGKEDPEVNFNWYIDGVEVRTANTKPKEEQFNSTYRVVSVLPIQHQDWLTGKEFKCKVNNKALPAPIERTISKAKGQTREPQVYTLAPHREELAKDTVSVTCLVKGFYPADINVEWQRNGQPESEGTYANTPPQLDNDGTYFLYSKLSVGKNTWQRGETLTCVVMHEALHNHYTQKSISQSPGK
Method: mAbs originating from the loopA3-llama Fc immunization were assayed for their affinity for hNav1.7-loopA3. Therefore, a Maxisorp plate was coated with 10 ng/well of loopA3-llamaFc chimera and incubated overnight at 4° C. The next day, the plate was blocked with PBS+1% casein for 2 hours at RT. Subsequently a concentration gradient of antibodies was applied (range 0.25 pM-66 nM) for another hour. Antibody binding to loopA3 was detected using a HRP-conjugated anti-human Fc antibody (Abcam, Ab7499) (incubation 1 hour at RT, dilution 1/5000 in PBS+0.1% casein), followed by TMB addition and OD620 nm measurement. EC50 values were determined using GraphPad Prism software. For comparison purposes a known hNav1.7-loopA3 binding monoclonal antibody, UCB_932 (US2011/0135662), was tested.
In a next experiment, the binding affinity of the loop-specific mAbs was determined and compared to reference mAbs as described in US2011/0135662 (for loop A3: UCB_932, for loopB1-C1-D1: UCB_983, for loopC3: UCB_1066; US2011/0135662). Affinities were determined using an ELISA with a loop-coating of 10 ng/well (loopA3-llama Fc), 20 ng/well (loop-B1-C1-D1-llama Fc) or 50 ng/well (loopC3-llama Fc). The remainder of the experimental setup was identical to abovementioned binding ELISAs. Most of the mAbs show pM affinity for the respective hNav1.7 extracellular loop they are binding. […] The EC₅₀ for the reference mAbs could not be determined (nd) from the ELISA data available because the binding was too weak.

[2] = molecular target: T2, hNav1.5-B1-C1-D1-llFc (human); assay: binding ELISA; the panel prints no target, by paragraph 288 and paragraph 555 the coated hNav1.5 loop B1-C1-D1-llama Fc
T2 construct: also called Nav1.5 extracellular loop B1-C1-D1 llamaFc chimera
T2 chain: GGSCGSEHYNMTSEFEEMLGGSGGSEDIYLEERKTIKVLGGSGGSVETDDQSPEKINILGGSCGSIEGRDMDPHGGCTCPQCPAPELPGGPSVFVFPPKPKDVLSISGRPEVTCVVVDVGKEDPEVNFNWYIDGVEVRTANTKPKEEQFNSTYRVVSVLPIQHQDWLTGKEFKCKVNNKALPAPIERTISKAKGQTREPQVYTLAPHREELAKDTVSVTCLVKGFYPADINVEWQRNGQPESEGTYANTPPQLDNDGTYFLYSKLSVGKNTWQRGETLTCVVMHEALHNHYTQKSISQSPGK
Text: The therapeutic potency of an anti-hNav1.7 antibody will highly depend on the lack of binding to other Nay family members. Of particular interest is hNav1.5, which is expressed on cardiac muscle cells. As such, cross-reactive binding of hNav1.7 antibodies to hNav1.5 could lead to heart failure. To assay the specificity of the mAbs derived from DNA immunization for hNav1.7, the corresponding loopA3 and loopB1-C1-D1 sequences of hNav1.5 were cloned as llamaFc chimera and cross-reactivity was determined using a binding ELISA (FIG. 8). All clones, except clone 9A6 and 9H4, show no cross-reactivity to hNav1.5. In addition, cross reactivity for hNav1.2 was tested for the loopA3-binding clones 8A7 and 8B6 using hNav1.2 and hNav1.7 derived monomeric, GST-tagged loopA3 peptides (Abnova, H00006326-Q01 (hNav1.2) and H00006335-Q01 (hNav1.7)). Again, no cross-reactive binding was observed.

[3] = molecular target: T3, RatB1-C1-D1-llFc (rat); assay: binding ELISA; the panel prints no target, by paragraph 562 the coated rat loop B1-C1-D1-llama Fc
T3 construct: also called rat Nav1.7 loopB1-C1-D1 llamaFc chimera
T3 chain: T1 chain with R32K, S52T, Q53E, H54Y, T56D, E57Y

[4] = molecular target: human Nav1.7 (full length) (human) (UniProt Q15858); assay: cell-based or functional assay
[5] = molecular target: T4, hNav1.7-loopA3-llama Fc fusion (human); assay: binding ELISA on coated loop-llama Fc chimera (20 ng/well), OD620
T4 construct: also called hNav1.7-loopA3-llFc; loopA3-llamaFc chimera
T4 chain: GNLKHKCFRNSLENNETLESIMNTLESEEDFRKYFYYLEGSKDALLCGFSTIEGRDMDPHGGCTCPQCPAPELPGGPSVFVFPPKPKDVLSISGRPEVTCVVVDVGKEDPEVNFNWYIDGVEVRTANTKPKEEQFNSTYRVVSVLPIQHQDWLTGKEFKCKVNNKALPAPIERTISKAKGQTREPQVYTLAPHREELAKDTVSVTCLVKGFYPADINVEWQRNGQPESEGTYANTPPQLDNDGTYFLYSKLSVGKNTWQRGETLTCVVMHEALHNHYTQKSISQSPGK
Method: (§1) For all DNA-immunization derived mAbs the binding affinity for the various hNav1.7-loop-llama Fc chimeras was tested in a binding ELISA. Therefore, a Maxisorp plate (Nunc) was coated with 20 ng/well of hNav1.7-loopA3-llama Fc, hNav1.7-loopB1-C1-D1-llama Fc or hNav1.7-loopC3-llama Fc. Remainder of the ELISA setup is as described above. […] Only at very high concentration minor cross-reactivity is observed for some clones.

[6] = molecular target: T1, hNav1.7-loopB1-C1-D1-llama Fc; assay: as above
Method: as §1

[7] = molecular target: Nt-GCGR-hFc (human) (UniProt P47871); assay: scFv binding ELISA, periplasmic extract on coated Nt-GCGR
Sequence of Nt-GCGR-hFc (human) (P47871 26-136): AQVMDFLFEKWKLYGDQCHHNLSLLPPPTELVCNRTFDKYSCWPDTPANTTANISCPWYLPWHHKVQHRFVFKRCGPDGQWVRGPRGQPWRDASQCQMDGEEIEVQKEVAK

[8] = molecular target: T5, Nt-GCGR-hFc (human, UniProt P47871 26-136); assay: ELISA with a titration of biotin-Nt-GCGR (x axis) against the mAbs, OD620
T5 construct: domain: N-terminal domain; also called Nt-GCGR-Fc; recombinant N-terminal domain of GCGR; not shown: hFc
T5 sequence (P47871 26-136): as above

B1: 9C3 (antibody, V domains shown)
VH: EVQLVQPGAELRNPGTSVKVSCKTSGYYFTSSDIQWVRQAPAQGLEWMGRIDPEDGATKYAPKFQGRVTFTADTFTRTAYVELSNLRSDDTAVYYCMTAGGEYWGKGTLVTVSS
VL: QPVLNQPSALSVSLGQTARITCQGGDFRNYYNNWYQQKPGQAPVLVIYEDSERPSGIPERFSGSSSGDTVILTVSRVQADDEADYYCQSSDSTDNAVFGGGTHLTVL
notes: chimeric llama-human, human IgG1 constant domains
- EC50 [1]: 0.17 nM
- binding result [2]: no binding (tested: about 130 nM)
- binding result [3]: binds
- % inhibition of inward current following P02 voltage protocol, 10 µg/ml [4]: 18.3%
- % inhibition of inward current following P02 voltage protocol, 25 µg/ml [4]: 21.6%
- % inhibition of inward current following P02 voltage protocol, 100 µg/ml [4]: 36.9%
- binding result [5]: binds

B2: 9A11 (antibody, human IgG1, V domains shown)
VH: EVQLVQPGAEVRRPGAAVKVSCKASGFALISSYIDWVRQAPGQGLEWMGRIDPEDGGTSYAQKFQGRVTVTVDTATSTAYVELSSLRSDDTGVYFCMVGDSGYWGQGTQVTVSS
VL: ATMLTQSPGSLSVVPGESASISCKASQSLVHTDGKTYLSWLLQKPGQSPQRLIYQVSTRGSGVPDRVTGSGSGTDFTLKISGVKAEDAGVYYCAQTTYYPPTFGQGTKVELK
- EC50 [1]: 0.091 nM
- binding result [2]: no binding (tested: about 130 nM)
- % inhibition of inward current following P02 voltage protocol, 10 µg/ml [4]: 16%
- % inhibition of inward current following P02 voltage protocol, 25 µg/ml [4]: 49.4%
- % inhibition of inward current following P02 voltage protocol, 100 µg/ml [4]: 62.3%

B3: 9F10 (antibody, human IgG1, V domains shown)
VH: B2 VH with A79V
VL: ATMLTQSPGSLSVGPGESASISCKAGQSLTHPNGKTYLSWLLQKPGQSPRRLIYETSNRDPGVPDRFTGSGSGTDFTLRIVGVTVEDAGVYYCAQTTYFPIAFGQGTKVELK
- EC50 [1]: 0.081 nM
- binding result [2]: no binding (tested: about 130 nM)
- binding result [3]: binds
- binding result [5]: no binding (tested: about 66 nM)

B4: 9G6 (antibody, human IgG1, V domains shown)
VH: EVQLVQPGAELTKPGASVKVSCNTSGYTFTGYYIDWVRQVPGEGLEWMGRIDPEDGDTKYAQKFQGRVTITADTSTTTAYMELSSLRSEDTAVYYCSLGVDYWGQGTQVTVSS
VL: B2 VL with A25T, T32S, S39Y, T58N, G60D, V67F, Y99D, P101V
- binding result [2]: no binding (tested: about 130 nM)
- % inhibition of inward current following P02 voltage protocol, 10 µg/ml [4]: 11.8%
- % inhibition of inward current following P02 voltage protocol, 25 µg/ml [4]: 22.8%
- % inhibition of inward current following P02 voltage protocol, 100 µg/ml [4]: 37.5%
- binding result [6]: binds

B5: 9C12 (antibody, V domains shown)
VH: B2 VH with A79V
VL: ATMLTQSPASLSVVPGESASISCKASQSLVHSDGKTYLYWLLQKPGQSPQRLIYQVSNRGSGVPDRFTGSGSGTDFTLKISGVKAEDAGVYYCAQHTYYPPSFGSGTRLEIK
notes: as for B1
- EC50 [1]: 0.22 nM
- binding result [2]: no binding (tested: about 130 nM)
- binding result [3]: binds
- binding result [5]: no binding (tested: about 66 nM)

B6: scFv A3 (scFv, part only; not given: GS linker, not shown: small tags and cut ends)
scFv, part: QVQVQESGGGLVQPGGSLRLSCATSGFTFSNYYMSWVRQAPGKGPEWVSSIYSDLSTTYYADSVKGRFTISRDRAKNTLYLQMNSLKSEDTAVYYCARLSTVAGVDYWGKGTLVTVSSSYELTQSPSVSVALRQTAKITCGGNNIGSKSAQWYQQKPGQAPVLVIYADYRRPSGIPERFSGSNSGNTATLTISGAQAEDEADYYCQVWDSSANAAVFGGGTHLTVLG
- ScFv binding ELISA signal [7]: 0.883

B7: scFv B1 (scFv, part only; not given: GS linker, not shown: small tags and cut ends)
scFv, part: B6 scFv, part
- ScFv binding ELISA signal [7]: 0.749

B8: mAb 6A1 (antibody, IgG1, V domains shown)
VH: EVQLVESGGGLVQPGGSLRLSCAASGFTFSRNAMTWVRQAPGKGLEWVSAISSTGNSITEADSVKGRFTISRDNAKNMLYLQMNSLKPEDTAVYYCAKLGGDTWYMEYWGQGTQVTVSS
VL: SYELTQSPSMSVALRQTAKITCGGNNIGSKSAQWYQQKPGQAPVLVIYADNRRPSGIPERFSGSNSGNTATLTISGAQAEDEADYYCQVWDSSANAVFGRGTHLTVLG
- binding result [8]: no binding (tested: about 20 ng/ml biotin-Nt-GCGR)

B9: 9A1 (antibody, V domains shown)
VH: EVQLVQPGAELRNPGASVKVSCKASGDTFTDYYIHWVRQAPGQGLEWMGRIDPEDGGTKYTQKFQGRVTFTADTSTSTVYLELDSLRSEDTAVYYCVGDMDYWGKGTLVTVSS
VL: QTVVTQEPSLSVSPGGTVTLTCGLSSGSVTFGNYPSWYQQTPGQAPRTLIYTTNSRHSGVPSRFSGSISGNKATLTISGAQPEDEADFYCALSRVSGTYGTVFGGGTHLTVL
notes: as for B1
- EC50 [1]: 0.33 nM
- binding result [2]: no binding (tested: about 130 nM)
- binding result [3]: binds
- % inhibition of inward current following P02 voltage protocol, 10 µg/ml [4]: 6.4%
- % inhibition of inward current following P02 voltage protocol, 25 µg/ml [4]: 24.3%
- % inhibition of inward current following P02 voltage protocol, 100 µg/ml [4]: 37.5%
- binding result [5]: binds
